From patent US20220380409A1 (CALIFORNIA INSTITUTE OF TECHNOLOGY, published 2022)
Square brackets hold non-standard residues; d marks the D form. Ends that are not written are not given here. Pra = C#CC[C@H](N)C(=O)O; Az4 = not defined here; PEG = not defined here

T1: LISDAELEAIFD (SEQ ID NO:34)-Az4-PEG-Biotin (Plasmodium falciparum, reading uncertain)
T1 peptide: LISDAELEAIFD-{Az4-PEG-biotin}


Legend:
LISDAELEAIFD (SEQ ID …) = target: T1, LISDAELEAIFD (SEQ ID …); assay: in situ click bead screen of cyclic library C against LISDAELEAIFD-Az4-PEG-Biotin; hits formed a triazole linkage to the epitope peptide
PfLDH protein [1] = target: T2, PfLDH protein (Plasmodium falciparum, UniProt Q27743 2-316); assay: ELISA titration of PfLDH protein on the ligand (FIG. 11)
T2 construct: also called Plasmodium falciparum LDH protein

PfLDH protein [2] = target: T2, PfLDH protein; assay: in situ click bead screen of azide-modified cyclic library C with pfLDH and alkyne-modified hevwh anchor; hit found by triazole formation with the primary ligand
GST-PvLDH = target: T3, GST-PvLDH (Plasmodium berghei, UniProt P84793 1-313); assay: ELISA: 5 uM biotinylated ligand on a streptavidin plate, GST-PvLDH overnight, antiGST-HRP detection (FIG. 10)
T3 construct: Printed as 'whole PvLDH' and 'GST-PvLDH'; also called whole PvLDH protein; not shown: glutathione S-transferase (GST) tag

Binder	binding result (LISDAELEAIFD (SEQ ID …))	further results
[Pra]KKIHL (triazole (positions not given here); not fully specified (bridges), On-bead library member; variable region only) [KKIHL (SEQ ID NO:6), hit 2 against LDH]	binds	
HWSAN (staple (positions not given here); also: RCM between olefin-bearing non-natural residues, places not given here, biotinylated, also called RCM cyclic peptide; one of the RCM cyclized peptides) [RCM cyclized version of the HWSAN (SEQ ID NO:11) peptide]		EC50 (PfLDH protein [1]): 2.5 nM
ELYKY (triazole (positions not given here); also: Az4 (azide residue) at position 1, ring closed through triazole, places not given here, Secondary ligand; It was found on bead by in situ click with alkyne-modified hevwh in the presence of pfLDH) [ELYKY (SEQ ID NO:19), hit 3 against pan pLDH]		binding result (PfLDH protein [2]): binds
[Pra]PLKKG (triazole (positions not given here); not fully specified (bridges), On-bead library member; variable region only) [PLKKG (SEQ ID NO:8), hit 4 against LDH]	binds	
[Pra]ILYWK (triazole (positions not given here); not fully specified (bridges), On-bead library member; variable region only) [ILYWK (SEQ ID NO:7), hit 3 against LDH]	binds	
[Pra]HWSAN (triazole (positions not given here); also: biotinylated in plate assay, construct not described, Variable region only; The exact biotinylated construct used on the streptavidin plate is not described; also called Hit 6) [HWSAN (SEQ ID NO:11) peptide, triazole-cyclized]	binds	binding result (GST-PvLDH): binds
[Pra]RGGIL (triazole (positions not given here); not fully specified (bridges), On-bead library member; variable region only) [RGGIL (SEQ ID NO:5), hit 1 against LDH]	binds	
YLGHK (triazole (positions not given here); also: Az4 (azide residue) at position 1, ring closed through triazole, places not given here, Secondary ligand; It was found on bead by in situ click with alkyne-modified hevwh in the presence of pfLDH) [YLGHK (SEQ ID NO:14), hit 1 against pan pLDH]		binding result (PfLDH protein [2]): binds
